± gives the uncertainty stated by the source.
Experiment: protein stability index of a GFP-peptide fusion (yeast GPS) (PSI 1-4); higher = more stable; sorted into four equal gates, so the index is relative within each strain
In short: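 The protein stability index combines read frequencies across sorting gates, each weighted by its gate number and then summed. To obtain those frequencies, a pooled yeast library of GFP fusions to tiled 17-residue yeast protein peptides, on a plasmid also expressing Cherry, was grown to mid-log phase in leucine-free medium. The cells were sorted into four equal gates by GFP/Cherry ratio before plasmid amplification by PCR and Illumina sequencing.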

Sequence | protein stability index (doa10∆) | protein stability index (pdr5∆) | protein stability index (san1∆) | protein stability index (ubr1∆)
ELKYQRSLRATAEERVG [RPL15A] | 1.27 ± 0.083 | 1.48 ± 0.11 | 1.67 ± 0.19 | 1.09 ± 0.054
ELLETVSLTKRKQEREI [YIL149C/MLP2] | 1.43 ± 0.095 | 1.61 ± 0.07 | 1.5 ± 0.19 | 1.12 ± 0.036
ELLIYKKSQCKKKTTLE [YIL149C/MLP2] | 3.03 ± 0.21 | 3.29 ± 0.13 | 2.95 ± 0.083 | 3.19 ± 0.15
ELNDLKWGRNQPVNINL [YMR129W/POM152] | 2.8 ± 0.1 | 2.72 ± 0.086 | 2.83 ± 0.11 | 2.56 ± 0.068
ELNIIPRDLLRVIIQEL [PRP28] | 1.15 ± 0.062 | 1.4 ± 0.061 | 1.38 ± 0.21 | 1.15 ± 0.045
ELPTQLALEIIVRPAKG [RRP46] | 1.52 ± 0.041 | 1.57 ± 0.044 | 1.49 ± 0.079 | 1.84 ± 0.045
ELQMRSFLKEGDLLNAE [RRP4] | 2.71 ± 0.071 | 3.27 ± 0.11 | 3.07 ± 0.087 | 3.23 ± 0.08
ELSIRDVTHTLGMLDDN [SMC4] | 3.13 ± 0.091 | 3.04 ± 0.082 | 3.22 ± 0.049 | 3.27 ± 0.097
ELSKSRALQENGIIMNG [YMR153W/NUP53] | 2.63 ± 0.16 | 2.85 ± 0.13 | 2.64 ± 0.16 | 3.17 ± 0.15
ELSVTGSAINHHRIFDS [YMR129W/POM152] | 3.02 ± 0.12 | 3.24 ± 0.1 | 2.91 ± 0.12 | 2.93 ± 0.052
ELSVVLSGIIQDIYYLA [RRI2] | 2.32 ± 0.12 | 2.24 ± 0.14 | 2.02 ± 0.13 | 2.6 ± 0.092
ELVRLLIIDEIHLLHDD [BRR2] | 2.17 ± 0.11 | 1.63 ± 0.075 | 1.5 ± 0.1 | 1.97 ± 0.063
ELYEVDVLKVNTLVRPN [RPL25] | 2.52 ± 0.095 | 2.67 ± 0.099 | 2.72 ± 0.12 | 2.87 ± 0.088
EMEVDAEGEEVEVKAEI [RPN1] | 3.48 ± 0.091 | 3.74 ± 0.24 | 3.55 ± 0.093 | 3.39 ± 0.079
ENDAKKSKGDVDIKGED [NUT1] | 3.18 ± 0.12 | 3.27 ± 0.2 | 2.95 ± 0.16 | 3.2 ± 0.12
ENDIEIKGPEFKFSGTV [YLR335W/NUP2] | 2.72 ± 0.14 | 3.04 ± 0.12 | 3.07 ± 0.15 | 
ENDNLDNVSKNALDKLR [YCG1] | 3.29 ± 0.099 | 3.15 ± 0.16 | 3.08 ± 0.08 | 3.26 ± 0.1
ENELVITSIPKPLTENC [RMP1] | 3.42 ± 0.14 | 3.4 ± 0.11 | 3.39 ± 0.066 | 3.1 ± 0.07
ENENILIKAKNFLVFQG [SMC1] | 1.22 ± 0.094 | 1.25 ± 0.12 | 1.96 ± 0.22 | 1.17 ± 0.11
ENIIQRLQAANSMEYTG [CDC53] | 1.94 ± 0.065 | 2.32 ± 0.11 | 2.25 ± 0.18 | 1.9 ± 0.095
ENIPVALCKNRKCQFRT [POP1] | 2.46 ± 0.048 | 2.68 ± 0.059 | 2.32 ± 0.079 | 1.96 ± 0.035
ENITNKVTEKVLTQLTA [CSI1] | 2.62 ± 0.051 | 2.22 ± 0.037 | 2.4 ± 0.041 | 2.69 ± 0.041
ENLEESFLSKHALYLAP [SSN2] | 3.12 ± 0.056 | 3.31 ± 0.065 | 3.26 ± 0.044 | 3.28 ± 0.05
ENSANSTVASALDTNGT [SIR4] | 3.08 ± 0.097 | 3.18 ± 0.073 | 2.79 ± 0.09 | 2.86 ± 0.069
ENVEKKEAALKTMIKTI [SMC2] | 1.93 ± 0.058 | 2.29 ± 0.077 | 1.73 ± 0.09 | 2.14 ± 0.039
EPAEANEENDLDVDPAK [RPB2] | 3.3 ± 0.18 | 3.15 ± 0.19 | 3.17 ± 0.13 | 3.41 ± 0.17
EPDRDENWIHVSCLSFM [LIN1] | 3.12 ± 0.051 | 3.07 ± 0.042 | 3.08 ± 0.042 | 3.11 ± 0.036
